PMC2897846

Biological target: CD40 on human B cells (human (endogenous in B cells from PBMC)) (UniProt P25942)
Chain of UniProt P25942 (P25942 21-277): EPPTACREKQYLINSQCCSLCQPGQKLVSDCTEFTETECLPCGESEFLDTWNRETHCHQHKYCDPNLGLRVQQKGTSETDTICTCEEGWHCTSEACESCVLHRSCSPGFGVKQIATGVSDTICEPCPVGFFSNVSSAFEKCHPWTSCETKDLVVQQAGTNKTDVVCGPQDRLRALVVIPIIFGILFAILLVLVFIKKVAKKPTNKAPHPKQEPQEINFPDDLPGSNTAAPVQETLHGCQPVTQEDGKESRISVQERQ

CD40 ligand (CD40L, CD154) incorporated into HIV virions (from UniProt P29965 1-261)
intracellular AID protein (flow cytometry) in CD19+ B cells exposed to CD40L+ HIV NL4-3 for three days (% of CD19+ cells): 2.11
